Results published in patent US20240239878A1 (SHANGHAI QILU PHARMACEUTICAL RESEARCH AND DEVELOPMENT CENTRE, published 2024).
Read-outs that look alike come from different tables or passages of the source.

T1: human DLL3 on SHP-77 cells (human, UniProt Q9NYJ7 27-618)
T1 construct: also called DLL3-expressing cells (SHP-77)
T1 sequence: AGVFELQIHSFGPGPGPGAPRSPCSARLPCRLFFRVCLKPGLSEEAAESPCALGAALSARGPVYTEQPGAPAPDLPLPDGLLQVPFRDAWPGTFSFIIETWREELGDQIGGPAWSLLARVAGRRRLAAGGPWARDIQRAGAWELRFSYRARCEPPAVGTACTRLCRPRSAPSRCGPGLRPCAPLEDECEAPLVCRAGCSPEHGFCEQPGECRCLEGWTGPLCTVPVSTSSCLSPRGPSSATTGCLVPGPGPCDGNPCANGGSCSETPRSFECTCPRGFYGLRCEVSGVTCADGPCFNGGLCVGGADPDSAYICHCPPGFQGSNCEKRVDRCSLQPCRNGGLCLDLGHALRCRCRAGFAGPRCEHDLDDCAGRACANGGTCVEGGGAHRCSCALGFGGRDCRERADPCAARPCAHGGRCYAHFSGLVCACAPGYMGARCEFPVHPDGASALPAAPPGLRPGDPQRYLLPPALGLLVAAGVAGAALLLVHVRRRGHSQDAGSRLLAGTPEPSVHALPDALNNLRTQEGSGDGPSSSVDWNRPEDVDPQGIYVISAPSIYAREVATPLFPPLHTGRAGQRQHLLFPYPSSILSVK

T2: Cynomolgus monkey DLL3 on HEK293 cells (HEK293-cyno DLL3) (Cynomolgus monkey, UniProt Q9NYJ7 27-618 (human entry))
T2 chain: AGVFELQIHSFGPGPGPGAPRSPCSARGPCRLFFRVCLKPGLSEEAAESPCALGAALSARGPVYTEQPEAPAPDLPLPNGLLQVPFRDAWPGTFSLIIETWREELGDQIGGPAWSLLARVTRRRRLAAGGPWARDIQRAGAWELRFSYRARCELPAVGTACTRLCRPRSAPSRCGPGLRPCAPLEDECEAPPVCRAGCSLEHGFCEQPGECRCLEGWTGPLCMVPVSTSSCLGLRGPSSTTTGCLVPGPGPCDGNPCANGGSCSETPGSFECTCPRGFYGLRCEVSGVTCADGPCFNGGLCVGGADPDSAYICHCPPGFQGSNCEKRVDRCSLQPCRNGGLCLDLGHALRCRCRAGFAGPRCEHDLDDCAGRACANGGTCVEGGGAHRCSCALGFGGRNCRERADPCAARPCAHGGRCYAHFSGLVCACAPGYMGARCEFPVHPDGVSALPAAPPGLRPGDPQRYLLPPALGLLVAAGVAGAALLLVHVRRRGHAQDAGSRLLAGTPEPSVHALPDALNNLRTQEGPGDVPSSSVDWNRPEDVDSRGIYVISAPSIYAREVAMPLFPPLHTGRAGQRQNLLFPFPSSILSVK

T3: human DLL3 antigen protein (Kactus Biosystems, Cat. No. DLL-HM103) (human, UniProt Q9NYJ7 27-492)
T3 sequence: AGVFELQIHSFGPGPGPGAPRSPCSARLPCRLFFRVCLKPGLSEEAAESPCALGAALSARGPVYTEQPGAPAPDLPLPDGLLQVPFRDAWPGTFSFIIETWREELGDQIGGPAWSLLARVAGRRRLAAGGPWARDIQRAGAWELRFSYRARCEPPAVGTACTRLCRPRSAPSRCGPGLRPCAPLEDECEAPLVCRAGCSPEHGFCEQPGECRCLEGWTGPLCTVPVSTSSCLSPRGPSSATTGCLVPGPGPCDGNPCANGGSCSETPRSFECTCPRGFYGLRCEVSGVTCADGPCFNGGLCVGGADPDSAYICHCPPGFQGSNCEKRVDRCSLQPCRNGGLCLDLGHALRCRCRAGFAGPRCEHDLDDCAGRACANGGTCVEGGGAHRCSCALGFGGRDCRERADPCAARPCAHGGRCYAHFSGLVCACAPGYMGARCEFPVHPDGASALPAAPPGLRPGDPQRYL

B1: DLL3-12 camelid-derived anti-DLL3 chimeric antibody (antibody, human IgG1, V domains shown)
VH: QVQLVESGGGLVQPGESLRLSCAGSGFAFSSYDMHWVRQAPGKDFEWVSSISRDGRGPRYADFVKGRFTISKDNGRNMLYLQLNSLEIEDTAMYYCSKGYPIMGGTTQGTQVTVSS
B2: DLL3-276 camelid-derived anti-DLL3 chimeric antibody (antibody, human IgG1, V domains shown)
VH: QVQLVESGGGSVQAGGSLNLSCATSGSTASTTYMGWFRQAPGKGREGVAIIYTARDNPWYANSVKGRFIISQDNAKKTLYLQMNTLKPEDTATYYCAATLANPTRTAWGQGTLVTVSS
B3: H-46A5A4 mouse hybridoma-derived humanized anti-DLL3 antibody (antibody, V domains shown)
VH: QVQLVQSGAEVKKPGASVKVSCKASGYTFTDHTIHWVRQAPGQGLEWMGYIYPRDGYTMYNEKFKGRVTMTRDTSTSTVYMELSSLRSEDTAVYYCARAFHALDYWGQGTLVTVSS
VL: DIQMTQSPSSLSASVGDRVTITCSASQGISNYLNWYQQKPGKAPKLLIYYTSSLHSGVPSRFSGSGSGTDFTFTISSLQPEDIATYYCQQYSKLPYTFGGGTKLEIK

Key:
[1] = target: T1, human DLL3 on SHP-77 cells; assay: flow cytometry, SHP-77 cells
Procedure: (§1) Monoclonal selection was performed, and the expression level of DLL3 protein in the monoclonal cells were identified by flow cytometry. The culture was expanded and stored in storage for later use. SHP-77 and HEK293-cyno DLL3 cells were cultured. The culture medium for SHP-77 cells were RPMI1640+10% FBS, and the culture medium for HEK293 cyno DLL3 cells were DMEM+10% FBS+200 μg/ml Hygromycin. The cells were cultured in a T75 cell culture flask at a 37° ° C. in a 5% CO₂ incubator. When using cells, they are washed with sterile DPBS, digested with 0.25% trypsin EDTA for about 5 minutes, and then stopped with a complete medium.
(§2) The digested cells were centrifuged at 1000 rpm for 5 min at room temperature. The supernatant was discarded and the cells were resuspended in 100 μL of 1% BSA (in PBS). The cells were counted and adjusted to a cell density of 1E6/m. The dilute cells were seeded in a 96-well round-bottom culture plate (corning 3799), and centrifuged at 1500 rpm for 5 min at 4° C. The supernatant was discarded and the cells were stored at 4° C. until use. Antibody samples to be tested were diluted with 1% BSA (in PBS) at a starting concentration of 100 nM, downwards by a 10-fold gradient for 7 concentrations. The cells were resuspended with the diluted antibody at 100 μL/well and incubated for 1 hour at 4° C. The cells were centrifuged at 1500 rpm for 5 minutes at 4° C. and the supernatant was discarded. The cells were resuspended and washed with 160 μL of 1% BSA (in PBS), centrifuged at 1500 rpm for 5 minutes at 4° C. The supernatant was discarded. The secondary antibody (goat anti human IgG Fc PE) was diluted 1:200 with 1% BSA (in PBS) according to the manufacturer's instructions and the cells were resuspended with the diluted secondary antibody. 100 μL/well, and incubated for 0.5 h at 4° C. The cells were centrifuged at 1500 rpm for 5 minutes at 4° C. and the supernatant was discarded. The cells were resuspended and washed with 160 μL of 1% BSA (in PBS), centrifuged at 1500 rpm for 5 minutes at 4° C. The supernatant was discarded. The cells were resuspended in 100 μL of 1% BSA (in PBS), and filtered across a 300 mesh gauze. The mean fluorescence intensity of the PE channels was measured by flow cytometry.

[2] = target: T1, human DLL3 on SHP-77 cells; assay: flow cytometry, SHP-77 cells; remark: listed apart in the source
Procedure: (§3) SHP-77 and HEK293-cyno DLL3 cells were cultured. The culture medium for SHP-77 cells were RPMI1640+10% FBS, and the culture medium for HEK293 cyno DLL3 cells were DMEM+10% FBS+200 μg/ml Hygromycin. The cells were cultured in a T75 cell culture flask at a 37° C. 5% CO₂ incubator. When using cells, they are washed with sterile DPBS, digested with 0.25% trypsin EDTA for about 5 minutes, and then stopped with a complete medium.
as §2, with “antibody,” for “antibody.”
(§4) The analyzed mean fluorescence intensity was imported into Graphpad to analyze the median-binding concentration (hereinafter referred to as EC50) of antibody and cell and the top mean fluorescence intensity (Top MFI).

[3] = target: T2, Cynomolgus monkey DLL3 on HEK293 cells …; assay: flow cytometry, HEK293-cyno DLL3 cells
Procedure: as §3
as §2, with “antibody,” for “antibody.”
as §4

[4] = target: T2, Cynomolgus monkey DLL3 on HEK293 cells …; assay: flow cytometry, HEK293-cyno DLL3 cells
Procedure: as §1, §2

[5] = target: T3, human DLL3 antigen protein (Kactus …); assay: SPR (Biacore 8K), antibody captured on anti-human Fc, DLL3 in solution
Procedure: The affinity and kinetic properties of the humanized anti-DLL3 antibody to human DLL3 were analyzed using a Biacore 8K instrument. CM5 chips were activated with EDC and NHS, followed by immobilization of anti-human Fc murine mAb and blocked with ethanolamine.
Human DLL3 was diluted two-fold serially to serial concentrations (100 nM-0.39 nM) and associated for 90 s and dissociated for 600 s at a flow rate of 50 μL/min.
After completion of each round of the experiment, the captured antibody was removed together with the antigen by washing with a 3M MgCl₂ solution at a flow rate of 30 μL/min for 30 s to complete the regeneration of the chip. The raw data were analyzed using Biacore Insight Evaluation Software (3.0.12.15655) software and fitted with a (1:1) Langmuir model with.

[6] = target: T1, human DLL3 on SHP-77 cells; assay: flow cytometry, SHP-77 cells; remark: listed apart in the source
Procedure: SHP-77 cells were cultured. The culture medium for SHP-77 cells was RPMI1640+10% FBS. The cells were cultured in a T75 cell culture flask at a 37° C. 5% CO₂ incubator. When using cells, they are washed with sterile DPBS, digested with 0.25% trypsin EDTA for about 5 minutes, and then stopped with a complete medium.
as §2, with “plated” for “seeded”, “antibody,” for “antibody.”, “µL/well,” for “μL/well,”
as §4

Binder	EC50 [1] [nM]	Top MFI [1] [MFI]	EC50 [2] [nM]	Top MFI [2] [MFI]	EC50 [3] [nM]	Top MFI [3] [MFI]	EC50 [4] [nM]	Top MFI [4] [MFI]	Kd [5] [nM]	koff [5] [s⁻¹]	kon [5] [M⁻¹ s⁻¹]	EC50 [6] [nM]	Top MFI [6] [MFI]
B1	0.092	886	0.114	935	1.38	232	0.073	220	–	–	–	–	–
B2	0.374	763	0.396	782	2.08	179	0.897	175	–	–	–	–	–
B3	–	–	–	–	–	–	–	–	0.811	0.000178	219000	1.35	1520
